The experiment has as its target extracellular region of FGFR1 fused to the Fc fragment of human IgG1 (UniProt P11362).
Chain of UniProt P11362 (P11362 22-376): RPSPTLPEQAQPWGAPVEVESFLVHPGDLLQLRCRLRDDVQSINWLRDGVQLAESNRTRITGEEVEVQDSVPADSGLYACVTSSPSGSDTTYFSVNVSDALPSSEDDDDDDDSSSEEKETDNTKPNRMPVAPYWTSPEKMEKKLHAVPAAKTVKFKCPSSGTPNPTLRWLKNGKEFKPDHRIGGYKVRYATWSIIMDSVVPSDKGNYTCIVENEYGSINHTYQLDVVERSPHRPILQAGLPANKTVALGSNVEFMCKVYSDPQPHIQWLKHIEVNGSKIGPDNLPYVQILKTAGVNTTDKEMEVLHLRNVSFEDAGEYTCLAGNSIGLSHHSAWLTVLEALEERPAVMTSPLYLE

On to “truncated wild-type FGF1 (Met-Ala-FGF1 21-154) (ligand)”, for which the cellular uptake of fluorescently labelled FGF1WT into U2OS-R1 cells in the presence of heparin, quantitative confocal microscopy (normalized RSI) was 25.2%.

(Values after publication PMC12121223.)
